Our source for the self-cleavage values is the RNAGym collection of RNA variant scans (doi:10.7554/elife.80360).

First the molecules themselves.
B1: HDV Ribozyme (parent)
chain: GGCCGGCAUGGUCCCAGCCUCCUCGCUGGCGCCGGCUGGGCAACAUUCCGAGGGGACCGUCCCCUCGGUAAUGGCGAAUGGGACCCA

The variants in the data set derive from B1. Description: self-cleavage, relative activity (ratio to wild type); higher = more cleavage; co-transcriptional.
Consider GGCCGGCAUGGUCCCAGCCUCCUCGCUGGCGCCGGCUGGGCAACAUUCCGAGGGGACCGUCCCCUCGGAAAUAGCGAAUGGGACCCA [U69A G73A], for which the self-cleavage came to 0.619.

Turning to GGCCGGCAUGGUCCCAGCCUCCUCGCUGGCGCCUGCUGGGCAACAUUCCGAGGGGACCGUCCCCUCGGUAAGGGCGAAUGGGACCCA [G34U U72G], the self-cleavage turned out to be 0.297.

As to GGCCGGCAUAGUCCCAGCCUCCUCGCUGGCGCCGGCUGGGCAAAAUUCCGAGGGGACCGUCCCCUCGGUAAUGGCGAAUGGGACCCA [G10A C44A], the self-cleavage was 0.321.

As to GCCCGGCAUGGUCCCAGCCUCCUCGCUGGCGCCGGCUGGGCAACAUUCCGAGGGGACCUUCCCCUCGGUAAUGGCGAAUGGGACCCA [G2C G59U], the self-cleavage was 0.0343.

Take GGCCGGCAUGGUCCCAGCCUCCUCGCAGGCGCCGGCUGGGCAACAUUCCGAGGGGACCGUCCCCUCGGUAAUGGCGAAUGGGACCCU [U27A A87U]: the self-cleavage worked out at 0.602.

As for GGCCGGCAUGGUCCCAGCCUCCUCGCUGGCGCCGGCUGGGCAACAUUCCGAGGGGACCGUCCCCUCUGUAAUGGCGAAUGGGACCCG [G67U A87G], the self-cleavage worked out at 0.91.

As for GGCCGGCAUGGUCCCAGCCUCCUCGCUGGCGCCGACUGGGCAGCAUUCCGAGGGGACCGUCCCCUCGGUAAUGGCGAAUGGGACCCA [G35A A43G], the self-cleavage worked out at 0.185.

As to GGCCGGCAUGGUCCCAGCCUCCUCGCUGGCCCCGGCUGGGCAACAUUCCGAGGGGACCGUCCCCUUGGUAAUGGCGAAUGGGACCCA [G31C C66U], the self-cleavage came out at 0.292.

Take GGCCGGCAUGGUCCCAGCCUCCUCGCUGGCGCCGGCUGGGCAACAUUCCGAGGGGACCGUCCCCUCGGUAAUGGCGAAUGGGACUCU [C85U A87U]: the self-cleavage amounted to 0.956.

Take GGCCGGCAUGGUCCCAGCCUCCUCGCUGGCGCCGGCUGGGCAACAUUGCGAGGGGAACGUCCCCUCGGUAAUGGCGAAUGGGACCCA [C48G C57A]: the self-cleavage turned out to be 0.798.

Regarding GGCCGGCAUGGUCCCUGCCUCCUCGCUGGCGCCGGCUGGGCAAAAUUCCGAGGGGACCGUCCCCUCGGUAAUGGCGAAUGGGACCCA [A16U C44A], the self-cleavage came to 0.598.

Regarding GGCUGGCAUGGUCCCAGCCUCCUCGCUGGCGCCGGCUGGUCAACAUUCCGAGGGGACCGUCCCCUCGGUAAUGGCGAAUGGGACCCA [C4U G40U], the self-cleavage was 0.48.

For GGCCGGCAUGGUCCCAGCCUCCUCGCUGGCGCCGGCUGGGCAACAUUCCGAGGGGACCGUCCCCUCGGUCAUGGCGAAUGGGACCAA [A70C C86A], the self-cleavage was 1.11.

Regarding GGCCGGGAUGGUCCCAGCCUCCUCGCUGGCGCCGGCUGGGCAACAUCCCGAGGGGACCGUCCCCUCGGUAAUGGCGAAUGGGACCCA [C7G U47C], the self-cleavage was found to be 0.293.

Consider GGCCGCCAUGGUCCCAGCCUCCUCGCUGGCGCCGGCUGGGCAACAUUCCGAGGGGACCGUCCCCUCGGUAAAGGCGAAUGGGACCCA [G6C U72A], for which the self-cleavage amounted to 0.0755.

With GGCCGGCAUGGUCCGAGCCUCCUCGCUGGCGCCGGCUGGGCAACAUUCCGAGGGGACCGUCCCCUCGGUAAUGGCGAAUGGGACCCU [C15G A87U], the self-cleavage was 0.475.

Turning to GGCCGGCAUGGUCCCAGCCUCCUCGCUGGCGCCGGCUGUGCAACAUUUCGAGGGGACCGUCCCCUCGGUAAUGGCGAAUGGGACCCA [G39U C48U], the self-cleavage amounted to 0.594.

With GGCCGGCAUGGUCCCAGCCUCCUCGCUGGCGCCGGCUGGGCAACACUCCGAGGGGACCGUCCCCUCGGUAAUGGCGAAUGGGCCCCA [U46C A83C], the self-cleavage is 0.237.

Consider GGCCGGCAUGGUCCCAGCCUCCUCGCUGGCGCCGGCUGGGUAACAUUCCGAGGGGCCCGUCCCCUCGGUAAUGGCGAAUGGGACCCA [C41U A56C], for which the self-cleavage stood at 1.04.

For the variant GGCCGGCAUGGUCCCAGCCUCCUCGCUGGCCCCGGCUGGGCAACAGUCCGAGGGGACCGUCCCCUCGGUAAUGGCGAAUGGGACCCA [G31C U46G], the self-cleavage came to 0.266.

For GGCCGGCAUGGACCCAGCCUCCUCGCUGGCGCCGGCUGGGUAACAUUCCGAGGGGACCGUCCCCUCGGUAAUGGCGAAUGGGACCCA [U12A C41U], the self-cleavage is 0.147.

For the variant GGCCGGCAUGGUCCCAGCCUCCUCGCUGGCGCCGGCUGGGCAACAUCCCGAUGGGACCGUCCCCUCGGUAAUGGCGAAUGGGACCCA [U47C G52U], the self-cleavage worked out at 0.698.

In the case of GGCCGGCAUGGUCCCAGCCUCCUCGCUGGCGCCGGCUGGGAAAGAUUCCGAGGGGACCGUCCCCUCGGUAAUGGCGAAUGGGACCCA [C41A C44G], the self-cleavage worked out at 0.323.

As to GGCCGGCAUGGUCCCAGCCUCCUCGCUGGCGCCGGCUGGGCAACAUUACGAGGGGACCGUCCUCUCGGUAAUGGCGAAUGGGACCCA [C48A C63U], the self-cleavage amounted to 1.07.

As for GGCCGGCAUGGCCCCAGCCUCCACGCUGGCGCCGGCUGGGCAACAUUCCGAGGGGACCGUCCCCUCGGUAAUGGCGAAUGGGACCCA [U12C U23A], the self-cleavage came out at 0.0594.

With GGCCGGCAUAGUCCCAGCCUCCUCGCUGGCGCCGGCUGGGCAACAUUCCGAGGGGACCGUUCCCUCGGUAAUGGCGAAUGGGACCCA [G10A C61U], the self-cleavage stood at 0.84.

With GGCCGGCAUGGUCCCAGCCUCCUCUCUGGCGCCGGCUGGGCAACAUUCCGAGGGGACCGUCCCCUCCGUAAUGGCGAAUGGGACCCA [G25U G67C], the self-cleavage is 0.277.

For GGCCGCCAUGGUCCCAGCCUCCUCGCUGGCGCCGGCUGGGCAACAUUCCGCGGGGACCGUCCCCUCGGUAAUGGCGAAUGGGACCCA [G6C A51C], the self-cleavage came out at 0.225.

Take GGCAGGCAUGGUCCCAGCCUGCUCGCUGGCGCCGGCUGGGCAACAUUCCGAGGGGACCGUCCCCUCGGUAAUGGCGAAUGGGACCCA [C4A C21G]: the self-cleavage amounted to 0.

For the variant GGCCGGCAUGGUCCCAGCCUCCUCGCUGGCGCCGGCUGGGUAACAUUCCGAGGGAACCGUCCCCUCGGUAAUGGCGAAUGGGACCCA [C41U G55A], the self-cleavage amounted to 1.06.

As for GGCCGGCAUGGUCCCAGCCUCCUCGCGGGCGCCGGCUGGGCAACAUUCCGAGGGGACCGUCCCCUCGGUAAUGGCGAAUAGGACCCA [U27G G80A], the self-cleavage was 0.533.

For GGCCGGCAUGGUCCCAACCUCCUCGCUGGCGCCGGCUGGGCAACAUGCCGAGGGGACCGUCCCCUCGGUAAUGGCGAAUGGGACCCA [G17A U47G], the self-cleavage is 0.657.
